Like-named read-outs stand apart in the source and are kept apart here. Where no end group is shown, it is not given here.

Experiment in all cases: radioreceptor assay, displacement of [125I-DTyr0]-astressin from purified sCRFR2α
(Loss of bound radioactivity is the signal in a displacement assay; it reports binding, not function.)

For test [1], the target named is T1, mam sCRFR2α (mouse soluble CRF receptor type 2α, amino acids 1-143 with a FLAG epitope following amino acid 143, purified from COS M6 cell media) (mouse).
T1 chain: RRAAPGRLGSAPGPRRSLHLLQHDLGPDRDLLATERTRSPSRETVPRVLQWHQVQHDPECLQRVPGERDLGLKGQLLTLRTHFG

The target of test [2] is bact sCRFR2α (mouse soluble CRF receptor type 2α, amino acids 20-143, purified from E. coli) (mouse).
For test [3], the target named is mam sCRFR2α (mouse soluble CRF receptor type 2α, amino acids 1-143 with a FLAG epitope following amino acid 143, purified from COS M6 cell media) (mouse). The source holds these as a separate data set.

B1: Astressin (peptide)
chain: FHLLREVLEMARAEQLAQEAHKNRKLMEII
modifications: not checked
As usually defined, the Ki is a measure of affinity in units of concentration, obtained from inhibition or displacement. A low value points to tighter binding. Molecule B1 displayed a Ki in test [1] of 6.7 nM.

B2: corticotropin releasing factor (CRF) (peptide)
peptide: SEEPPISLDLTFHLLREVLEMARAEQLAQQAHSNRKLMEII
modifications: ends and bridges not checked
Consider B2, for which the Ki turned out to be 14.8 nM in test [2] and 23 nM in test [3].

B3: mUcn2 (urocortin 2) (peptide, UniProt Q99ML8 73-110, looked up)
peptide: VILSLDVPIGLLRILLEQARYKAARNQAATNAQILAHV
Take B3: the Ki amounted to 116 nM in test [2] and 113 nM in test [3].

B4: rUcn1 (urocortin 1) (peptide, UniProt P55090 81-120, looked up)
peptide: DDPPLSIDLTFHLLRTLLELARTQSQRERAEQNRIIFDSV
Take B4: the inhibitory constant (Ki) in test [2] was found to be 5.8 nM; in test [3], 6.6 nM.

(Values after patent US20070042954A1.)
